Data on two molecules can be found in paper PMC7050210 (Nature, 2020).

Where two headings read alike, the source gives them in different places. Non-standard residues stand in square brackets, D forms with d. No end group written: not given here. pS = N[C@@H](COP(=O)(O)O)C(=O)O

The target in experiment [1] is T1, β-TRCP1 (monomeric form, from residue 175 to C-terminus) (human, UniProt Q9Y297 175-605).
T1 sequence: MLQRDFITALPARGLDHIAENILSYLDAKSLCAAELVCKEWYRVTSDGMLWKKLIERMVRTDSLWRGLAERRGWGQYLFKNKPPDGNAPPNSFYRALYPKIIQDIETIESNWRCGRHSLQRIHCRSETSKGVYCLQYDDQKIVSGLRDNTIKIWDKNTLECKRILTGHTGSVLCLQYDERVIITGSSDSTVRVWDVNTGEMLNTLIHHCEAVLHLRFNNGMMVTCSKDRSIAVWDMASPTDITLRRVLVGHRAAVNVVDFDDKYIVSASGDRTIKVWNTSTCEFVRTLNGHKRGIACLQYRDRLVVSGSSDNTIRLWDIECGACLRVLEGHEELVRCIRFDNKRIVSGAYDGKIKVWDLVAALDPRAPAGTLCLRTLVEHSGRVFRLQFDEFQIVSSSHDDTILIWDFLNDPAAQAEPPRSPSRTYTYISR
In words: cryo-EM structure.

For experiment [2], the target named is T1, β-TRCP1 (monomeric form, from residue …). In words: cryo-EM structure. This is another data set of the same source.

On to CKKERLLDDRHDSGLDSMKDEE [IκBα-derived substrate peptide with N-terminal Cys (cryo EM peptide)], for which the binding result in experiment [1] is “binds”.
On to KKERLLDDRHD[pS]GLD[pS]MKDEE [IκBα-derived phosphopeptide KKERLLDDRHD(pS)GLD(pS)MKDEE], for which the binding result in experiment [2] is given as “binds”.
